The test system of data set [1] is Lck peptide substrate (YIYGSFK) attached to the carboxy-terminus of the Itk SH2 domain.

Chain of FLAG-tagged Btk full-length enzyme (Q06187 whole entry): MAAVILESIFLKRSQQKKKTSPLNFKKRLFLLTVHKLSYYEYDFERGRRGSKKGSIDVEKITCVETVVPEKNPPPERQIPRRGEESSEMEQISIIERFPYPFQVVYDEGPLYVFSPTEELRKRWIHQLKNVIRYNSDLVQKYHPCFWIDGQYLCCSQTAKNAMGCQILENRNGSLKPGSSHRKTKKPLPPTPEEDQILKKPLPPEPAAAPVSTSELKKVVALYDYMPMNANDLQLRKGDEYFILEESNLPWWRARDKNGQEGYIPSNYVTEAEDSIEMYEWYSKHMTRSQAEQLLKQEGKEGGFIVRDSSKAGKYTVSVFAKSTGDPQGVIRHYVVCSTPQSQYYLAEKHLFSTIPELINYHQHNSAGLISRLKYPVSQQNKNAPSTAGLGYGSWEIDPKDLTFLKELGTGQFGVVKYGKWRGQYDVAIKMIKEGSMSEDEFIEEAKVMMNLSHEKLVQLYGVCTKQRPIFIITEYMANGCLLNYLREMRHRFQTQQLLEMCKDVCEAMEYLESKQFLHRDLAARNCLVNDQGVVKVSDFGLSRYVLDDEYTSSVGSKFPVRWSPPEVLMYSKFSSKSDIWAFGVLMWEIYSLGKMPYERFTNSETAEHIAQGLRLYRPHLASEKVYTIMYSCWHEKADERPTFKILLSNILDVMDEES

Consider FLAG-tagged Btk full-length enzyme, for which the “phosphorylation on Y223 in an in vitro kinase assay” value in the data set on Btk SH3-SH2 (Btk 32) is “only substrates that contain both the site of phosphorylation (Y180 for Itk, Y187 for Tec, Y223 for Btk, and Y783 for PLCγ1) and the adjacent SH2 domain are phosphorylated by the Tec kinases”; in the data set on Btk SH3, “are not phosphorylated by the Tec and Btk kinases”.
Regarding His-tagged wild type Lck kinase domain, the “phosphorylation by Lck kinase domain (32P, scintillation counting) against the free peptide YIYGSFK” value in data set [1] was “most efficiently phosphorylated when attached to the carboxy-terminus of the SH2 domain and this tethered substrate is a better substrate by an order of magnitude”.

The values are drawn from US20140287434.
